Patent US20250002563A1 (UNIVERSITY OF PITTSBURGH OF THE COMMONWEALTH SYSTEM OF …, published 2025)

B1: Nb89 (VHH)
VHH: HVQLVESGGGLVQAGGSLRLSCAASGGTFTTFRMAWFRQTPGKEREFVAASSWGFVNYADPVKGRFTISRDNAKNTVYLEMSSLKTEDTAVYYCAARNPGTGQYDYWGQGTQVTVSS
B2: 5p-118 (VHH)
VHH: QVQLVESGGGLVQAGESLRLSCAASKPTFRNFAAGWFRQTPGKDREFVAVIEYDGDSAYYADSVKGRFTISRDNAKNTVYLQMNRLKPGDTAVYICAIGGNHYDPSKYYTADEYDYWGQGTQVTVSS
notes: class II(B) psNb
B3: 5p-132 (VHH)
VHH: QVQLVESGGGLVQAGGSLRLSCTASGYDFSILAIAWYRQAPGKERELVAAISRVGSTDYADSVKGRFTISRDNTKNTVSLQMDSLKPEDTAVYYCNAGIPMTTVLSGLGFWGQGTQVTVSS
notes: class IV psNb

How the values were obtained:
[1] = target: SARS-CoV-2 spike on pseudotyped virus particles (Wuhan-Hu-1 strain) (SARS-CoV-2, UniProt P0DTC2 14-1273); assay: cell-based or functional assay
[2] = target: recombinant RBD of the SARS-CoV-2 S protein (Example 1) (SARS-CoV-2, UniProt P0DTC2 319-541); assay: SPR, RBD immobilized on CM5
[3] = target: spike of SARS-CoV-2 Munich strain (authentic virus) (SARS-CoV-2); assay: cell-based or functional assay
[4] = target: T1, RBDSARS-CoV-2 (SARS-CoV-2 S protein residues 319-539, C-terminal His-tag) (SARS-CoV-2, UniProt P0DTC2 319-539); assay: ELISA
[5] = target: T2, RBDSARS-CoV (SARS-CoV S protein residues 318-510, C-terminal His-tag) (SARS-CoV, UniProt P59594 318-510); assay: ELISA
[6] = target: T1, RBDSARS-CoV-2 (SARS-CoV-2 S protein …); assay: SPR, RBD immobilized on CM5
[7] = target: T2, RBDSARS-CoV (SARS-CoV S protein …); assay: SPR, RBD immobilized on CM5

Binder	IC50, pseudotyped SARS-CoV-2 neutralization assay (luciferase) [1] [pM]	Kd [2] [pM]	PRNT SARS-CoV-2 Munich IC50 [3] [pM]	IC50 [4] [pM]	IC50 [5] [pM]	Kd [6] [pM]	Kd [7] [pM]
B1	129	108	–	–	–	–	–
B2	–	–	7410	< 10000	< 10000	< 1	3.96
B3	–	–	–	< 10000	–	390	304000
